From PMC4944284

B1: unnamed (parent)
chain: MPGFYEIVIKVPSDLDGHLPGISDSFVNWVAEKEWELPPDSDMDLNLIEQAPLTVAEKLQRDFLTEWRRVSKAPEALFFVQFEKGESYFHMHVLVETTGVKSMVLGRFLSQIREKLIQRIYRGIEPTLPNWFAVTKTRNGAGGGNKVVDESYIPNYLLPKTQPELQWAWTNMEQYLSACLNLTERKRLVAQHLTHVSQTQEQNKENQNPNSDAPVIRSKTSARYMELVGWLVDKGITSEKQWIQEDQASYISFNAASNSRSQIKAALDNAGKIMSLTKTAPDYLVGQQPVEDISSNRIYKILELNGYDPQYAASVFLGWATKKFGKRNTIWLFGPATTGKTNIAEAIAHTVPFYGCVNWTNENFPFNDCVDKMVIWWEEGKMTAKVVESAKAILGGSKVRVDQKCKSSAQIDPTPVIVTSNTNMCAVIDGNSTTFEHQQPLQDRMFKFELTRRLDHDFGKVTKQEVKDFFRWAKDHVVEVEHEFYVKKGGAKKRPAPSDADISEPKRVRESVAQPSTSDAEASINYADRLARGHSL

Variants of: B1
Test: sedimentation velocity (analytical ultracentrifugation), self-association
Conditions: with partner chain of the complex shown; parent: 1; read off a plot

Variant	ratio to parent
MPGFYEIVIKVPSDLDGHLPGISDSFVNWVAEKEWELPPDSDMDLNLIEQAPLTVAEKLQRDFLTEWRRVSKAPEALFFVQFEKGESYFHMHVLVETTGVKSMVLGRFLSQIREKLIQRIYRGIEPTLPNWFAVTKTRNGAGGGNKVVDESYIPNYLLPKTQPELQWAWTNMEQYLSACLNLTERKRLVAQHLTHVSQTQEQNKENQNPNSDAPVIRSKTSARFMELVGWLVDKGITSEKQWIQEDQASYISFNAASNSRSQIKAALDNAGKIMSLTKTAPDYLVGQQPVEDISSNRIYKILELNGYDPQYAASVFLGWATKKFGKRNTIWLFGPATTGKTNIAEAIAHTVPFYGCVNWTNENFPFNDCVDKMVIWWEEGKMTAKVVESAKAILGGSKVRVDQKCKSSAQIDPTPVIVTSNTNMCAVIDGNSTTFEHQQPLQDRMFKFELTRRLDHDFGKVTKQEVKDFFRWAKDHVVEVEHEFYVKKGGAKKRPAPSDADISEPKRVRESVAQPSTSDAEASINYADRLARGHSL [chain 1 Y224F]	0.69
MPGFYEIVIKVPSDLDGHLPGISDSFVNWVAEKEWELPPDSDMDLNLIEQAPLTVAEKLQRDFLTEWRRVSKAPEALFFVQFEKGESYFHMHVLVETTGVKSMVLGRFLSQIREKLIQRIYRGIEPTLPNWFAVTKTRNGAGGGNKVVDESYIPNYLLPKTQPELQWAWTNMEQYLSACLNLTERKRLVAQHLTHVSQTQEQNKENQNPNSDAPVIRSKTSARDMELVGWLVDKGITSEKQWIQEDQASYISFNAASNSRSQIKAALDNAGKIMSLTKTAPDYLVGQQPVEDISSNRIYKILELNGYDPQYAASVFLGWATKKFGKRNTIWLFGPATTGKTNIAEAIAHTVPFYGCVNWTNENFPFNDCVDKMVIWWEEGKMTAKVVESAKAILGGSKVRVDQKCKSSAQIDPTPVIVTSNTNMCAVIDGNSTTFEHQQPLQDRMFKFELTRRLDHDFGKVTKQEVKDFFRWAKDHVVEVEHEFYVKKGGAKKRPAPSDADISEPKRVRESVAQPSTSDAEASINYADRLARGHSL [chain 1 Y224D]	0.1
